For test [1], the target named is human CD47 (hCD47) expressed on cells (human) (UniProt Q08722). Description: flow cytometry, Raji cells. A general note: In flow cytometry, cells or beads pass a laser one at a time.
For test [2] the target is unchanged. Description: flow cytometry, Raji cells, competition with His-hSIRPα.
The target of test [3] is hu-sCD47-6His; extracellular domain of human CD47 antigen with 6His-tag (human). Kind of test: SPR Biacore.
The target is the same in test [4]. Kind of test: ELISA, coated glycosylated hCD47-His. In general terms: ELISA stands for enzyme-linked immunosorbent assay.
Test [5] has as its target N-deglycosylated soluble hCD47-His (PNGase treated) (human). Kind of test: ELISA, coated N-deglycosylated hCD47-His.
For test [6], the target named is hu-sCD47-6His; extracellular domain of human CD47 antigen with 6His-tag (human). Kind of test: ELISA, one-site binding saturation fit, glycosylated hCD47.
Test [7] addresses N-deglycosylated soluble hCD47-His (PNGase treated) (human). Kind of test: ELISA, one-site binding saturation fit, deglycosylated hCD47.

humanized 5F9 (hu5F9; vh2-vl2) (antibody), sequence (VH): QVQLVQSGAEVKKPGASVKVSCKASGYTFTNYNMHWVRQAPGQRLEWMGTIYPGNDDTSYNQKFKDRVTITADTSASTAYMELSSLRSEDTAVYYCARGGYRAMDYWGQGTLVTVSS
humanized 5F9 (hu5F9; vh2-vl2) (antibody), sequence (VL): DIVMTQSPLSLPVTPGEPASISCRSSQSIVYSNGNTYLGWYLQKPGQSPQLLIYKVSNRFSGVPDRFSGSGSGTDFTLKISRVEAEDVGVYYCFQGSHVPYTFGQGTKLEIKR
B6H12 (mouse IgG1, Abcam) (antibody), sequence (VH): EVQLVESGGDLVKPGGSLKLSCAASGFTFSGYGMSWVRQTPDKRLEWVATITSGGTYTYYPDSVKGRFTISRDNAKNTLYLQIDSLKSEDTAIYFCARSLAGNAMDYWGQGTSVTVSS
B6H12 (mouse IgG1, Abcam) (antibody), sequence (VL): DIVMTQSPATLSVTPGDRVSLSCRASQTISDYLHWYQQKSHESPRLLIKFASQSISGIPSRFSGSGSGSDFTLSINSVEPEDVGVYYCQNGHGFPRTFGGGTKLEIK

Take B6H12 (mouse IgG1, Abcam) (antibody): the EC50 in test [1] was determined as 2.93 µg/mL.
Substance chimeric 5F9 (c5F9) (antibody) showed an IC50 in test [2] of 0.209 µg/mL.
With “humanized 5F9 (hu5F9; vh2-vl2) (antibody)”, the dissociation constant (Kd) in test [3] amounted to 0.73 nM. In test [4], this substance returned an EC50 of 0.0547 nM and a 95% effect concentration (EC95) of 1.96 nM. In test [5], this substance came in with an EC50 of 0.254 nM and an EC95 of 54 nM. In test [6], this substance registered a Bmax of 2.66 OD value and an equilibrium binding constant of 49 pM. Moreover, in test [7], the Bmax2 amounted to 1.4 OD value and the equilibrium binding constant amounted to 129 pM.

Usually EC50 stands for the concentration that produces a half-maximal response. High values mean a need for much substance, low ones an effect from little substance. One may read the IC50 as the point on the concentration scale where inhibition reaches its midpoint. A high value points to weaker potency in that assay. What is called Kd is a measure of binding affinity in units of concentration. As usually defined, the EC95 is the concentration at which the effect reaches the 95% level. A lower EC95 goes with greater potency.
